T1: recombinant human ASM protein (human, UniProt P17405 47-630)
T1 construct: Recombinant human ASM in solution; also called acid sphingomyelinase (ASM) protein
T1 sequence: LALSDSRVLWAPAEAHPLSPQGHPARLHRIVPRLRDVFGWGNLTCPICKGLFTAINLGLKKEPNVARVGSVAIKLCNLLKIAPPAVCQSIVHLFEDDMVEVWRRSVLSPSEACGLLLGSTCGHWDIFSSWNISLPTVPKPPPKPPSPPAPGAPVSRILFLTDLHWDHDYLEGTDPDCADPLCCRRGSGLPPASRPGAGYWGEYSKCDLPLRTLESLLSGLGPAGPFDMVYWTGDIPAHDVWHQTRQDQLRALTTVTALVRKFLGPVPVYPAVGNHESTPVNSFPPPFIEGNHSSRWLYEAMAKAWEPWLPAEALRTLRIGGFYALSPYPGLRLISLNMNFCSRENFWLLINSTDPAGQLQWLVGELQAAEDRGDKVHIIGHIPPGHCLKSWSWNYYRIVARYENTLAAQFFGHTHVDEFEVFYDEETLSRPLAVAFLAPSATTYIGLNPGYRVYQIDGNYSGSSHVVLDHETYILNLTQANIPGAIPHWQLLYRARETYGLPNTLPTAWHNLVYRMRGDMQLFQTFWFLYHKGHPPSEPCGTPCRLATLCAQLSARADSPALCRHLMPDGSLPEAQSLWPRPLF

B1: #9104 (antibody, V domains shown)
VH: EVQLLESGGGLVQPGGSLRLSCAASGFTFSNYYMSWVRQAPGKGLEWVSGIYYGSGNIYYADSVKGRFTISRDNSKNTLYLQMNSLRAEDTAVYYCARDTPGFDYWGQGTLVTVSS
VL: QSVLTQPPSASGTPGQRVTISCTGSSSNIGNNAVNWYQQLPGTAPKLLIYYDSHRPSGVPDRFSGSKSGTSASLAISGLRSEDEADYYCGAWDYSLSAYVFGGGTKLTVLG
notes: Parental antibody; also called antibody #9104
B2: #9104v-H11 (antibody, human IgG4 S228P, lambda, V domains shown)
VH: B1 VH with N57I, I58P, G66E
VL: B1 VL
notes: Full-length IgG, lambda
B3: #9104v-H14 (antibody, human IgG4 S228P, lambda, V domains shown)
VH: B1 VH with N57K, I58P
VL: B1 VL
notes: Full-length IgG, lambda
B4: #9104v-H25 (antibody, human IgG4 S228P, lambda, V domains shown)
VH: B1 VH with I51T, G54A, N57G
VL: B1 VL
notes: Full-length IgG, lambda
B5: #9104v-H24 (antibody, human IgG4 S228P, lambda, V domains shown)
VH: B1 VH with I51L, N57I, I58P
VL: B1 VL
notes: Full-length IgG, lambda
B6: #9104v-H13 (antibody, human IgG4 S228P, lambda, V domains shown)
VH: B1 VH with N57I, I58P, D62N
VL: B1 VL
notes: Full-length IgG, lambda
B7: #9104v-H19 (antibody, human IgG4 S228P, lambda, V domains shown)
VH: B1 VH with N57V, I58P
VL: B1 VL
notes: Full-length IgG, lambda
B8: #9104v-H26 (antibody, human IgG4 S228P, lambda, V domains shown)
VH: B1 VH with I51T, G54A, I58A
VL: B1 VL
notes: Full-length IgG, lambda
B9: #9104v-H10 (antibody, human IgG4 S228P, lambda, V domains shown)
VH: B1 VH with S55N, N57I, I58P, G66D
VL: B1 VL
notes: Full-length IgG, lambda
B10: #9104v-H22 (antibody, human IgG4 S228P, lambda, V domains shown)
VH: B1 VH with I51L, S55G, N57T, I58P
VL: B1 VL
notes: Full-length IgG, lambda
B11: #9104v-H27 (antibody, human IgG4 S228P, lambda, V domains shown)
VH: B1 VH with I51T, G54D, N57Y, I58V
VL: B1 VL
notes: Full-length IgG, lambda
B12: #9104v-H18 (antibody, human IgG4 S228P, lambda, V domains shown)
VH: B1 VH with N57T, I58P, A61S
VL: B1 VL
notes: Full-length IgG, lambda
B13: #9104v-H31 (antibody, human IgG4 S228P, lambda, V domains shown)
VH: B1 VH with I51V, N57T, I58P
VL: B1 VL
notes: Full-length IgG, lambda
B14: #9104v-H30 (antibody, human IgG4 S228P, lambda, V domains shown)
VH: B1 VH with I51T, G54S, N57G
VL: B1 VL
notes: Full-length IgG, lambda
B15: #9104v-H17 (antibody, human IgG4 S228P, lambda, V domains shown)
VH: B1 VH with Q39R, N57T, I58P, D62A
VL: B1 VL
notes: Full-length IgG, lambda
B16: #9104v-H33 (antibody, human IgG4 S228P, lambda, V domains shown)
VH: B1 VH with I51V, G54P, I58P
VL: B1 VL
notes: Full-length IgG, lambda

We go through 16 molecules from patent US20260201064A1 (ISU ABXIS, published 2026).

Numbering of substitutions follows the chain as printed.

The target in one test is T1, recombinant human ASM protein. Description: BLI (Octet), antibody on AHC sensor. The method, then: (§1) The binding affinity, to the ASM protein, of the produced antibodies specifically binding to the ASM protein and the interactive dynamics therebetween were measured using an Octet® QK384 system (Pall Life Sciences).
(§2) First, an antibody specifically binding to the ASM protein produced in Example 1 was captured using an anti-human IgG Fc capture (AHC) biosensor, and 1.25, 2.5, 5, 10, or 20 nM recombinant human ASM protein solution was added thereto. […] The association constant (Kₐ), dissociation constant (Kd), and equilibrium dissociation constant (KD) for each antibody were determined using Octet® analysis software (Pall Life® Sciences). As a result, the binding affinities, to the human ASM protein, of the antibodies with mutations in the heavy chain CDR regions of the antibody #9104 as depicted in Table 1 are shown in Table 5, and the binding affinities, to the human ASM protein, of the antibodies with mutations of the light chain CDR regions in the antibody #9104 as depicted in Table 2 are shown in Table 6.
For orientation: BLI is a label-free optical method that tracks binding on a fibre tip over time.
B1: the Kd (usually the concentration at which binding is half-saturated) is 2250 pM; the koff (in general, a measure of how fast the partners let go of each other) came to 0.000873 s⁻¹; the kon – broadly, the second-order rate constant of association – was determined as 389000 M⁻¹ s⁻¹.
B2: the Kd worked out at 781 pM, the koff was 0.000195 s⁻¹ and the kon came to 250000 M⁻¹ s⁻¹.
The matching figures for B3: 857 pM, 0.000281 s⁻¹ and 328000 M⁻¹ s⁻¹.
As to B4, the Kd is 917 pM, the koff was determined as 0.00019 s⁻¹ and the kon turned out to be 207000 M⁻¹ s⁻¹.
As to B5, the dissociation constant (Kd) was determined as 1010 pM, the koff is 0.000206 s⁻¹ and the kon came out at 204000 M⁻¹ s⁻¹.
Taken in the same sequence, the figures for B6 were 803 pM, 0.000185 s⁻¹ and 231000 M⁻¹ s⁻¹.
In the case of B7, the Kd was 692 pM, the koff was 0.000184 s⁻¹ and the kon is 266000 M⁻¹ s⁻¹.
The matching figures for B8: 1740 pM, 0.000305 s⁻¹ and 175000 M⁻¹ s⁻¹.
In the case of B9, the equilibrium dissociation constant (Kd) is 651 pM, the koff turned out to be 0.000154 s⁻¹ and the kon is 237000 M⁻¹ s⁻¹.
The matching figures for B10: 798 pM, 0.000157 s⁻¹ and 197000 M⁻¹ s⁻¹.
B11: the Kd stood at 598 pM, the koff came to 0.000165 s⁻¹ and the kon turned out to be 276000 M⁻¹ s⁻¹.
Turning to B12, the Kd turned out to be 2690 pM, the koff stood at 0.000264 s⁻¹ and the kon turned out to be 97900 M⁻¹ s⁻¹.
In the case of B13, the Kd stood at 532 pM, the koff was 0.000141 s⁻¹ and the kon turned out to be 266000 M⁻¹ s⁻¹.
The matching figures for B14: 762 pM, 0.000151 s⁻¹ and 199000 M⁻¹ s⁻¹.
In the case of B15, the Kd is 719 pM, the koff stood at 0.000243 s⁻¹ and the kon was 338000 M⁻¹ s⁻¹.
The matching figures for B16: 517 pM, 0.000108 s⁻¹ and 208000 M⁻¹ s⁻¹.

For a further test the target is unchanged. Description: BLI (Octet), antibody on AHC sensor. This is another data set of the same source. The method, then: as §1, §2
After the small-scale expression in the ExpiCHO cell line as described above, the binding affinity to the human ASM protein was investigated as described in Experimental Example 1. Specifically, the antibody produced by a combination of #9104v-H33 heavy chain variable region and #9104v-L23 light chain variable region was not expressed and thus excluded in the analysis of binding affinity to ASM protein.
In the case of B1, the Kd turned out to be 2190 pM, the koff came out at 0.000855 s⁻¹ and the kon amounted to 391000 M⁻¹ s⁻¹.

For the next test the target is unchanged. Description: BLI (Octet), antibody on AHC sensor. This is another data set of the same source. The method, then: as §1, §2
As for B1, the Kd worked out at 2250 pM, the koff worked out at 0.000873 s⁻¹ and the kon was 389000 M⁻¹ s⁻¹.
